In patent US20220411504A1:

Assays:
[1] = biological target: human Kallikrein-2 6-His protein (soluble hK2) (human) (UniProt P20151); test: SPR, antibody captured by anti-Fc, soluble hK2 injected
HLA-A on cells (human) = HLA-A on cells (human) (UniProt P04439); test: flow cytometry, IgG1 mAb on cells expressing HLA-A
HLA-B on cells (human) = HLA-B on cells (human) (UniProt P01889); test: flow cytometry, IgG1 mAb on cells expressing HLA-B
HLA-C on cells (human) = HLA-C on cells (human) (UniProt P10321); test: flow cytometry, IgG1 mAb on cells expressing HLA-C

| Binder | Kd [1] [pM] | further results |
| --- | --- | --- |
| MHGB689 (antibody, human IgG1, kappa, V domains shown) VH: QVQLQQSGPGLVKPSQTLSLTCVISGDSVSSNRAAWNWIRQSPSRGLEWLGRTYYRSKWYNDYAVSVKSRITINSDTSKNQISLQLNSVTPEDTAVYYCARVRPGIPFDYWGQGTTVTVSS VL: DIQMTQSPDSLAVSLGERATINCESSQSVLFSSNKKNYLAWYQQKPGQPPKLLIYWASTRESGVPDRFSGSGSGTDFTLTINRLQAEDVAVYYCQQYNSTPWTFGQGTKVEIKR |  | GeoMean fluorescence (maximum value) (HLA-A on cells (human)): 2540; GeoMean fluorescence (maximum value) (HLA-B on cells (human)): 5790; GeoMean fluorescence (maximum value) (HLA-C on cells (human)): 266 |
| KL2B359 (scFv-LH-Fc) (Fc fusion, not shown: a dimerising Fc or GST) scFv: EIVLTQSPATLSLSPGERATLSCRASESVEYFGTSLMHWYQQKPGQPPRLLIYAASNVESGIPARFSGSGSGTDFTLTISSVEPEDFAVYFCQQTRKVPYTFGGGTKVEIKGGSEGKSSGSGSESKSTGGSQVQLQESGPGLVKPSQTLSLTCTVSGNSITSDYAWNWIRQFPGKRLEWIGYISYSGSTTYNPSLKSRVTISRDTSKNQFSLKLSSVTAADTAVYYCATGYYYGSGFWGQGTLVTVSS | 700 to 1000 |  |
| KL2B413 (scFv-LH-Fc) (Fc fusion, not shown: a dimerising Fc or GST) scFv: EIVLTQSPSFLSASVGDRVTITCRASQGISSYLSWYQQKPGKAPKLLIYATSTLQSGVPSRFSGSGSGTEFTLTISSLQPEDFATYYCQQLNSYPRTFGQGTKVEIKGGSEGKSSGSGSESKSTGGSEVQLVESGGGLVQPGGSLRLSCAASGFTFSSYWMTWVRQAPGKGLEWVANIKQDGSERYYVDSVKGRFTISRDNAKNSLYLQMNSLRAEDTAVYYCARDQNYDILTGHYGMDVWGQGTTVTVSS | 34300 |  |

Further lines, with some results ahead:

| Kd [1] [pM] | Binder | further results |
| --- | --- | --- |
| 80 | KL2B53 (antibody, human IgG4 S228P, kappa, F234A L235A, V domains shown) VH: EVQLVESGGGVVQPGRSLRLSCVASGFTFSSYDIHWVRQAPGKGLEWVAIISYDGSKKDYTDSVKGRFTISRDNSKNTLYLQMDSLRVEDSAVYSCARESGWSHYYYYGMDVWGQGTMVTVSS VL: DIVMTQSPSSLSASVGDRVTITCRASQDISNYLAWYQQKPGKVPKFLIYAASTLHSGVPSRFSGSGSGTDFTLTISSLQPEDVATYYCQKYNSAPYTFGQGTRLEIKR |  |
| 40 | KL2B242 (antibody, human IgG4 S228P, lambda, F234A L235A, V domains shown) VH: QVQLQESGPGLVKPSETLSLTCTVSGGSISSYYWSWLRQPAGSGLEWIGRLYVSGFTNYNPSLKSRVTLSLDPSRNQLSLKLSSVTAADTAVYYCAGDSGNYWGWFDPWGQGTLVTVSS VL: SYELTQPPSVSVSPGETASITCSGDQLGENYACWYQQKPGQSPVLVIYQDSKRPSGIPERFSGSNSGNTATLTISGTQALDEADYYCQAWDNSIVVFGGGTKLTVLG |  |
| 460 | KL2B30 (antibody, human IgG4 S228P, kappa, F234A L235A, V domains shown) VH: QVQLQESGPGLVKPSETLSLTCTVSGGSISSYYWSWIRQPPGKGLEWIGYIYYSGSTNYNPSLKSRVTISVDTSKNQFSLKLSSVTAADTAVYYCAGTTIFGVVTPNFYYGMDVWGQGTTVTVSS VL: DIQMTQSPSFLSASVGDRVTITCRASQGISSYLAWYQQKPGKAPKFLIYAASTLQSGVPSRFSGSGSGTEFTLTISSLQPEDFATYYCQQLNSYPLTFGGGTKVEIKR |  |
